The text below walks through data of article PMC5399792.

Data set [1] has as its target T1, influenza B polymerase (PA-PB1-PB2 heterotrimer, FluB) (Influenza B virus, UniProt Q5V8Z9;Q5V8Y6;Q5V8X3 1-726;1-752;1-770). In words: X-ray crystallography (3.8 A). Conditions: protein: recombinant, copies: 1;1;1.
Data set [2] has as its target T1, influenza B polymerase (PA-PB1-PB2 …). In words: fluorescence anisotropy; 1:1 stoichiometry. Conditions: protein: recombinant, copies: 1;1;1.
The target is the same in data set [3]. In words: FRET / fluorescence titration. Conditions: protein: recombinant; copies: 1;1;1; label: 3'-FAM-Ex-5 on v5'; 5'-Cy3 on v3' (implied by FRET).
Where [4] appears, read: label: FAM-Ex-5, 5' hook hairpin on polymerase.

B1: vRNA promoter v5' 1-14 + v3' 1-18 (crystal) (structured_RNA)
RNA 1: AGUAGUAACAAGAG
RNA 2: UAUACCUCUGCUUCUGCU
modifications: 5'-monophosphate on v5'
B1: in data set [1], the binding result is given as “binds”.

B2: v3' 1-18 (ssRNA)
RNA: UAUACCUCUGCUUCUGCU
Consider B2, for which the Kd in data set [2] (label: 5'-FAM-Ex-5, single strand) is below 10 nM.

B3: v5' 1-10 (ssRNA)
RNA: AGUAGUAACA
Consider B3, for which the Kd in data set [2] (label: 3'-FAM-Ex-5, 5' hook hairpin on polymerase) was below 10 nM.

B4: v5' 1-18 (ssRNA)
RNA: AGUAGUAACAAGAGGGUA
On to B4, for which, in data set [2] (setting [4]), the Kd is below 10 nM.

B5: capped 13-mer primer (ssRNA)
RNA: AAUCUAUAAUAGC
modifications: 5'-m7Gppp cap
B5: in data set [1] (single strand), the binding result is reported as “binds”.

B6: c5' 1-18 (ssRNA)
RNA: AGCAGAAGCAGAGGUAUA
B6: the Kd in data set [2] (setting [4]) was below 10 nM.

B7: c3' 1-18 (ssRNA)
RNA: UACCCUCUUGUUACUACU
In the case of B7, the Kd in data set [2] (label: FAM-Ex-5, single strand) is below 10 nM.

B8: v5' 1-10 + v3' 1-18 (mixed)
RNA 1: AGUAGUAACA
RNA 2: UAUACCUCUGCUUCUGCU
In the case of B8, the binding result in data set [3] was “binds”.
